Measurements from patent publication US20090048158A1, “Insulin-Like Growth Factor Binding Protein-4 Compounds and Methods for Inhibiting Angiogenesis and Tumor Growth in Mammalian Cells” (priority 2005, published 2009).

How the values were obtained:
U87MG cells [1] = assay: U87MG proliferation, CyQUANT Cell Proliferation Assay; format: cell-based, human; details: for decrease in proliferation: 500 μM dB-cAMP
Method: Proliferation rates of U87MG cells were determined using CyQUANT® Cell Proliferation Assay Kit (Molecular Probes, Inc., Eugene, Oreg.). […] Cells were fed every two days and harvested at days 2, 3, 5 and 6 by washing with HBSS, blotting microplates dry and storing at −80° C. until analysis. For cell density determination, plates were thawed at room temperature, 200 μl of CyQUANT GR dye/lysis buffer was added to each well and plates were incubated in the dark for 5 min. Sample fluorescence was measured (485 nm ex/530 nm em) in a cytofluorimeter plate reader (Bio-Tek FL600) and fluorescence values converted into cell numbers from cell reference standard curves.

U87MG cells [2] = assay: Anchorage-independent growth in semi-solid agar (U87MG); format: cell-based, human; details: for reduction of U87MG colony formation / tumor growth in soft agar: 500 ng/ml protein
Method: D-MEM containing 10% FBS was warmed to 48° C. and diluted with Bacto-Agar to make a 0.6% (w/v) agar solution; 3 ml of agar solution was poured into 60 mm plates. […] Number and size of colonies formed were analyzed under the microscope (Olympus 1×50). Phase contrast images (6 fields/dish) were captured using a digital video camera (Olympus U-CMT) and analyzed with Northern Eclipse v.5.0 software. Each experiment was done in triplicate. Capillary-like tube (CLT) formation

[3] = test system: human brain endothelial cells (HBEC); assay: Capillary-like tube (CLT) formation in Matrigel; format: cell-based; details: for effect on IGF-1-induced CLT formation: IGF-1 150 ng/ml; for effect on IGF-1-induced CLT formation / effect on VEGF165-induced CLT formation / effect on P1GF-induced CLT formation / effect on bFGF-induced CLT formation: protein 500 ng/ml; for effect on VEGF165-induced CLT formation: VEGF165 20 ng/ml; for effect on P1GF-induced CLT formation: P1GF 100 ng/ml; for effect on bFGF-induced CLT formation: bFGF 20 ng/ml
Description: Angiogenesis is the formation of new blood vessels from pre-existing capillaries. There are different methods to evaluate angiogenesis in vitro and in vivo. The method used in our studies consists in seeding human brain microvascular endothelial cells on Matrigel, which is an active matrix material resembling the mammalian cellular basement membrane. Endothelial cells seeded on Matrigel behave as they do in vivo and when submitted to an angiogenic stimuli reorganize forming a complex network of capillary-like tubes. The total length of the capillary-like tube network as well as the number of branching point (nodes) formed by the endothelial cells directly correlate with the potency of the angiogenic stimuli.
In vitro angiogenesis was assessed by endothelial tube formation in growth factor reduced Matrigel™ (BD Bioscience, Bedford, Mass.). 24-well plates were coated with 300 μl of unpolymerized Matrigel™ (5-7 mg prot/ml) and allowed to polymerize for 90 min at 37° C. […] In a set of experiments, 500 ng/ml of either full length recombinant IGFBP-4, NBP-4 or CBP-4 were co-applied with growth factors (IGF-I, VEGF165, P1GF, or bFGF) or U87MG CM. […] CLT formation was analyzed after 24 h using an Olympus 1×50 microscope. Phase contrast images were captured with a digital video camera (Olympus U-CMT) and analyzed using Northern Eclipse v.5.0 software. Microphotographs were thresholded, converted to binary images and skeletonized. The total length of the CLT networks and the number of nodes (branching points) formed by HBEC in the center of the well (˜80% of the total surface) were quantified. […]

[4] = test system: plasminogen activator activity in U87MG cells; assay: Plasminogen activator activity assay (S-2251); format: cell-based, human; details: 500 μM dB-cAMP, 3-day treatment
Method: Plasminogen activator activity (PAA) was determined by a spectrophotometric method using the chromogenic substrate S-2251 (D-Val-Leu-Lys p-nitroanilide dihydrochloride). […] Cells were washed 3 times and incubated for 2 h at 37° C. in phenol red-free D-MEM containing 2 c.u./ml plasminogen (DiaPharma Group, Ohio, USA) and 2 mM chromogenic substrate S-2251 (DiaPharma Group, Ohio, USA). The cleavage of 4-nitroaniline from the substrate by plasminogen activator was measured photometrically at 405 nm. Protein levels were measured with BioRad protein assay and PPA was expressed as a function of protein content in cell extracts.

U87MG cells [5] = assay: ELISA of secreted proteins in U87MG conditioned media; format: cell-based, human; details: 500 μM dB-cAMP, 6 days
PAI-1 in U87MG cells = assay: Western blot of PAI-1; format: cell-based, human; details: 500 μM dB-cAMP, 6 days
Method: Cellular proteins were extracted using CHAPS buffer. Proteins were separated on a 10% SDS-PAGE gel and transferred onto nitrocellulose membranes. Membranes were blocked with 5% instant skim dry milk in PBST for 1 hour, then washed twice for 5 min with PBST. Blots were probed with 1:500 dilution of the PAI-1 primary antibody (Biogenesis Ltd, England, UK) in 2% skim milk in PBST supplemented with 10 mM sodium azide overnight at 4° C. After washing in PBST, membranes were incubated with HRP-labeled anti-mouse IgG secondary antibody (NEN Life Science Products, USA; 1:5000) for 1 h at room temperature. Bands were visualized using Western Blot Chemiluminescence Reagent Plus kit (NEN™ Life Science Products) and the Fluor-S™ multiImager (BioRad Lab., Hercules, Calif., USA).

U87MG cells [6] = assay: Real-time PCR (Q-PCR) gene expression; format: cell-based, human; details: 500 μM dB-cAMP
Method: Total RNA was isolated from cells with TRIzol Reagent (Gibco BRL). The RNA (1 μg) was primed with oligo (dT)12-18 primers (0.5 μg/μg RNA, Gibco BRL) and reverse transcribed with 1-3 U of avian myeloblastosis virus reverse transcriptase (AMV RT, Promega) in a final volume of 20 μl. Completed RT reactions were diluted to 40 μl with water. Control reactions without the enzyme were run in parallel to monitor for potential genomic contamination. Primers were designed (Primer Express Software v2.0) for genes of interest (Table III) using Primer Express 2.0 program. Real-Time PCR was carried out with SYBR Green PCR Core Reagents Kit (Applied Biosystems, CA, USA) using the GeneAmp® 5700 Sequence Detection System (Perkin Elmer Applied Biosystems). A cDNA pool serially diluted from 1:10 to 1:1000 was used to generate standard curves. Reactions were performed in 20 μl reaction mixture containing 1×SYBR PCR buffer (Perkin-Elmer), 200 μM of each dATP, dCTP, dGTP and 400 μM dUTP, 0.025 U/μl AmpliTaq Gold, 0.01 U/μl AmpEraseUNG (uracil-N-glycosylase), 3 mM MgCl2, 120 nM of each primer and 2 μl of cDNA. […] Fluorescence was detected at the end of every 60° C. phase. […]
The PCR cycle number at which fluorescence reaches a threshold value of 10 times the standard deviation of baseline emission was used for quantitative measurements. […]

Hela cells = assay: Anchorage-independent growth in semi-solid agar (Hela); format: cell-based, human; details: 500 ng/ml IGFBP-4, 4 weeks
Method: D-MEM containing 10% FBS was warmed to 48° C. and diluted with Bacto-Agar to make a 0.6% (w/v) agar solution; 3 ml of agar solution was poured into 60 mm plates. […] The solidified cell layer was covered with 500 μl D-MEM±treatment which was replaced every three days over a 20-25 day period. Number and size of colonies formed were analyzed under the microscope (Olympus 1×50). Phase contrast images (6 fields/dish) were captured using a digital video camera (Olympus U-CMT) and analyzed with Northern Eclipse v.5.0 software. Each experiment was done in triplicate. Capillary-like tube (CLT) formation

[7] = 500 ng/ml protein co-applied with U87MG CM

CCCC(=O)Nc1ncnc2c1ncn2[C@@H]1O[C@@H]2COP(=O)(O)O[C@H]2[C@H]1OC(=O)CCC [dB-cAMP, dibutyryl cyclic AMP]
decrease in proliferation (U87MG cells [1]; day 3): ~30%
decrease in proliferation (U87MG cells [1]; day 5): ~45%
decrease in proliferation (U87MG cells [1]; day 6): ~50%
total number of colonies vs untreated (U87MG cells [2]; 500 μM dB-cAMP or 500 ng/ml IGFBP-4): not significantly (p<0.05) different
reduction of size of colonies (total covered area per field) (U87MG cells [2]; 500 μM dB-cAMP, 4 weeks): ~75%
size of colonies (total covered area per field) (U87MG cells [2]; 500 μM dB-cAMP, 4 weeks, untreated 1.1±0.3): 0.3±0.1 mm^2
effect on U87MG CM-induced CLT formation ([3]; 500 μM dB-cAMP added directly to U87MG CM): did not inhibit CLT formation
CLT formation by HBEC exposed to CM of dB-cAMP-treated U87MG ([3]; U87MG treated with 500 μM dB-cAMP, 6 days): blocks the angiogenic response
reduction in plasminogen activator activity (PAA) [4]: 30%
VEGF-A levels in CM, increase vs untreated (U87MG cells [5]): 20%
levels of P1GF, IGF-1 and bFGF in CM (U87MG cells [5]): below the detection limit
VEGF-A level in CM of treated cells (U87MG cells [5]; untreated ~60): ~80 ng/mL
PAI-1 protein expression (PAI-1 in U87MG cells): up-regulation
IGF-I and IGF-II mRNA change, Q-PCR (U87MG cells [6]): no changes were detected
IGFBP-3 mRNA levels treated vs untreated, Q-PCR (U87MG cells [6]; day 6): not significantly different

vascular endothelial growth factor-165 [VEGF]
HBEC preparations in which CLT formation was induced ([3]; 7 HBEC isolations, VEGF 20 ng/ml alone or U87MG CM): 3 out of 7

B1: NBP-4: recombinant N-terminal IGFBP-4 protein fragment, aa 1 to 156 of the precursor, tagged (protein)
chain: MLPLCLVAALLLAAGPGPSLGDEAIHCPPCSEEKLARCRPPVGCEELVREPGCGCCATCALGLGMPCGVYTPRCGSGLRCYPPRGVEKPLHTLMHGQGVCMELAEIEAIQESLQPSDKDEGDHPNNSFSPCSAHDRRCLQKHFAKIRDRSTSGGKMDPWSHPQFEKTGHHHHHHHHGGQ
modifications: tagged; IGFBP4 N-terminal fragment construct
notes: recombinant N-terminal IGFBP-4 protein fragment, aa 1 to 156 of the precursor, tagged
reduction of U87MG colony formation / tumor growth in soft agar (U87MG cells [2]; 4 weeks): ~50%
effect on IGF-1-induced CLT formation [3]: abolish the angiogenic response
effect on VEGF165-induced CLT formation [3]: abolish the angiogenic response

B2: CBP-4: recombinant C-terminal IGFBP-4 protein fragment, aa 155 to 258 of the precursor, tagged (protein)
chain: MLLLLLLLGLRLQLSLGIASKVNGAPREDARPVPQGSCQSELHRALERLAASQSRTHEDLYIIPIPNCDRNGNFHPKQCHPALDGQRGKCWCVDRKTGVKLPGGLEPKGELDCHQLADSFREVDPWSHPQFEKTGHHHHHHHHGGQ
modifications: tagged; IGFBP4 C-terminal construct
notes: recombinant C-terminal IGFBP-4 protein fragment, aa 155 to 258 of the precursor, tagged
reduction of U87MG colony formation / tumor growth in soft agar (U87MG cells [2]; 4 weeks): ~55%
effect on U87MG CM-induced CLT formation [3, 7]: completely blocking
effect on IGF-1-induced CLT formation [3]: completely blocking
effect on P1GF-induced CLT formation [3]: completely blocking
effect on VEGF165-induced CLT formation [3]: completely blocking
effect on bFGF-induced CLT formation [3]: completely blocking

B3: insulin-like growth factor binding protein (IGFBP)-4 (protein)
chain: MLPLCLVAALLLAAGPGPSLGDEAIHCPPCSEEKLARCRPPVGCEELVREPGCGCCATCALGLGMPCGVYTPRCGSGLRCYPPRGVEKPLHTLMHGQGVCMELAEIEAIQESLQPSDKDEGDHPNNSFSPCSAHDRRCLQKHFAKIRDRSTSGGKMKVNGAPREDARPVPQGSCQSELHRALERLAASQSRTHEDLYIIPIPNCDRNGNFHPKQCHPALDGQRGKCWCVDRKTGVKLPGGLEPKGELDCHQLADSFREVDPWSHPQFEKTGHHHHHHHHGGQ
modifications: Streptag-II/His8 tag; IGFBP-4 construct
notes: full length recombinant IGFBP-4 with Streptag-II/(His)8 tag, aa 1 to 258
effect on U87MG proliferation rates (U87MG cells [1]; 500 ng/ml): did not affect U87MG proliferation rates
size of colonies (total area per field) (U87MG cells [2]; 500 ng/ml IGFBP-4, 4 weeks, untreated 1.5±0.6): 0.4±0.3 mm^2
reduction of U87MG colony formation / tumor growth in soft agar (U87MG cells [2]; 4 weeks): ~80%
reduction of Hela colony formation / colony size (Hela cells): ~45%
reduction of Hela colony formation / colony size (Hela cells; listed as IGFBP4): ~50%
effect on U87MG CM-induced CLT formation [3, 7]: reversed U87MG CM-stimulated CLT (FIG. 4A-C) to control levels
effect on IGF-1-induced CLT formation [3]: potently inhibited
effect on P1GF-induced CLT formation [3]: antagonized
effect on VEGF165-induced CLT formation [3]: antagonized
effect on bFGF-induced CLT formation [3]: antagonized
